Data on two molecules can be found in article PMC8594078.

One may read the IC50 as the concentration that gives 50% inhibition. Lower therefore signals inhibition by little substance.

Where two headings read alike, the source gives them in different places.

Data set [1] has as its target T1, biotinylated human ACE2 (Acrobiosystems EP-105 kit) (Homo sapiens, UniProt Q9BYF1 18-740). Put plainly: competition ELISA. (In an ELISA, binding on a coated surface is turned into a signal by an enzyme label.)
Data set [2] concerns the target T1, biotinylated human ACE2 (Acrobiosystems …). Briefly: competition ELISA. This is another data set of the same source.

T1 sequence (Q9BYF1 18-740): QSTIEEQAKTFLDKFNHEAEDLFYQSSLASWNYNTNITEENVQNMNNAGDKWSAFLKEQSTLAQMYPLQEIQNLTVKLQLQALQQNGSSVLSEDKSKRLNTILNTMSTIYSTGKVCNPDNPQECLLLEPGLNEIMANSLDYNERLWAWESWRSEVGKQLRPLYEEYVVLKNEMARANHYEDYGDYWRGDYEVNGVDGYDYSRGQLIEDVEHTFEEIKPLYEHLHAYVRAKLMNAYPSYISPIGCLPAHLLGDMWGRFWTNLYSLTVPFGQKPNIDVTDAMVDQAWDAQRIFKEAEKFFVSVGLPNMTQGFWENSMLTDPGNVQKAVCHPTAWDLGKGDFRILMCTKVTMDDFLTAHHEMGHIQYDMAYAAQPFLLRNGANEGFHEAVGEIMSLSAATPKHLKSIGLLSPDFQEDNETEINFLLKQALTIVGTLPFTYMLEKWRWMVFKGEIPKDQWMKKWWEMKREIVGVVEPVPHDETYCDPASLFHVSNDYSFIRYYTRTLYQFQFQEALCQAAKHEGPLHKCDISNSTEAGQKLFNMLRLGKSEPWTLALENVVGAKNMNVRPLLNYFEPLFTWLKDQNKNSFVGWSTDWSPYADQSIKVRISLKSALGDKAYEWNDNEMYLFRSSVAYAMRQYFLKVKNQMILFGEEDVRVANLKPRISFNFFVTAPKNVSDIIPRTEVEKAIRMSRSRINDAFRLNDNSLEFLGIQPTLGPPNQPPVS

B1: Apt 14 (ssDNA)
DNA: ATAGTCCCTGGCGTGCTTCCGCGAGAGTTCGACATTCCCGAAAGTACGACGAAAGTCCAGAGCAGGTACGGTGTCA
Consider B1, for which the figures for the IC50 in data set [1] and in data set [2] were 132 nM and 47 nM, respectively.

B2: Apt 6 (ssDNA)
DNA: ATAGTCCCTGGCGTGCTTGACAGCAACACGAACACTGAACGTTCTTAACAAGCCTGGCAGAGCAGGTACGGTGTCA
As to B2, the IC50 in data set [1] was found to be 35 nM; in data set [2] it was 33 nM.
